Results taken from patent US20190010237A1 (AbbVie / Abbott, published 2019).

Legend:
[1] = target: T1, Human PRLR expressed on HEK-293 cells (human, UniProt P16471 25-622); assay: FACS titration on PRLR-expressing HEK-293 cells (293hPRLR), MFI against Ab (nM)
T1 construct: also called PRLR-expressing HEK-293 cells; HEK293/Human PRLR
T1 sequence: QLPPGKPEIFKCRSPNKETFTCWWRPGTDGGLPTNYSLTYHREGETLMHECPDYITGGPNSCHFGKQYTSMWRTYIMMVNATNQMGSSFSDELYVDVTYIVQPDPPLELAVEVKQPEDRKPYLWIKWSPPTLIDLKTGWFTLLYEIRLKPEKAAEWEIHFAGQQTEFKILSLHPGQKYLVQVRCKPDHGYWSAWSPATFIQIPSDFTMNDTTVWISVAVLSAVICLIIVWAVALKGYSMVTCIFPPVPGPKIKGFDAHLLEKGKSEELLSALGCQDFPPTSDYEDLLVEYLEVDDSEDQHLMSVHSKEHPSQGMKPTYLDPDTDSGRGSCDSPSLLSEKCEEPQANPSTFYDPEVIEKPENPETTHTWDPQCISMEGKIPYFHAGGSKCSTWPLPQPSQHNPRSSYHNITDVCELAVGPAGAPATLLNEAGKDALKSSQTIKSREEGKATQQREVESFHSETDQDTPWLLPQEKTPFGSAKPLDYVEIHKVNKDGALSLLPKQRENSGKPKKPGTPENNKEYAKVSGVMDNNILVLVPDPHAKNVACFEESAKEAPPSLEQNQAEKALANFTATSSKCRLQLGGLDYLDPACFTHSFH

[2] = target: T2, PRLR (prolactin receptor, as named in the kinetics and crystallography paragraph) (UniProt P16471 25-234, limits assumed); assay: kinetic measurement, method not named
T2 construct: The paragraph says only 'PRLR'
T2 sequence (looked up): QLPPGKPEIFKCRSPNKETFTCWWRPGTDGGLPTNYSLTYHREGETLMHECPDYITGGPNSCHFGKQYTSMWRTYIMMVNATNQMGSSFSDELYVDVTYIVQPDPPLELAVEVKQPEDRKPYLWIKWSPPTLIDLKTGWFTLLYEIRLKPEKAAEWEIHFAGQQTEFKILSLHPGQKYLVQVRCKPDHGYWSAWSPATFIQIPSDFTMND

B1: h16f humanized anti-PRLR antibody (antibody, human IgG1, kappa)
heavy: not shown
light: DIQMTQSPSSVSASVGDRVTITCKASQYVGTAVAWYQQKPGKSPKLLIYSASNRYTGVPSRFSDSGSGTDFTLTISSLQPEDFATYFCQQYSSYPWTFGGGTKVEIKRTVAAPSVFIFPPSDEQLKSGTASVVCLLNNFYPREAKVQWKVDNALQSGNSQESVTEQDSKDSTYSLSSTLTLSKADYEKHKVYACEVTHQGLSSPVTKSFNRGEC
notes: Humanized IgG1; also called antibody h16f; parental h16f
B1 was tested, and the EC50 [1] was 290 pM, the Kd [2] was 460 pM and the koff [2] was 0.000623 s⁻¹.

B2: h16e anti-PRLR antibody (antibody, human IgG1, kappa)
heavy: not shown
light: DIQMTQSPSSLSASVGDRVTITCRASENIYSYLAWYQQKPGKPPKLLVYNAKTLAEGVPSRFSGSGSGTDFTLTISSLQPEDFATYYCQHHYATPFTFGQGTKLEIKRTVAAPSVFIFPPSDEQLKSGTASVVCLLNNFYPREAKVQWKVDNALQSGNSQESVTEQDSKDSTYSLSSTLTLSKADYEKHKVYACEVTHQGLSSPVTKSFNRGEC
In the case of B2, the EC50 [1] is reported as 500 pM.

B3: anti-PRLR antibody LFA-102 (Novartis) (antibody, V domains shown)
VH: EVQLVESGGGLVQPGGSLRLSCAVSGFTFSSYGMSWVRQAPGKRLEWVATVSSGGTYTYYPDSVKGRFTISRDNSKNTLYLQMNSLRAEDTAMYYCARHRGNYYATYYYAMDYWGQGTLVTVSS
VL: DIVLTQSPDSLAVSLGERATINCKASKSVSTSGYTYMHWYQQKPGQPPKLLIYLASNRESGVPDRFSGSGSGTDFTLTISPVQAEDVATYYCQHSGELPPSFGQGTKLEIKR
Work on B3 yielded a Kd [2] of 1300 pM and a koff [2] of 0.0011 s⁻¹.
